Publication PMC6692331

Experiments:
[1] = target: humanized Archaeoglobus ferritin (HumFt) (Archaeoglobus fulgidus | human); experiment: SEC; HP-SEC with UV (220, 410 nm) and fluorimetric detection; ferritin dissociated without MgCl2, mixed with a 20 fold molar excess of Cyt C, re-assembled with 50 mM MgCl2; mobile phase 20 mM HEPES pH 7.4, 50 mM MgCl2; Cyt C signal at the retention time of the ferritin 24-mer (encapsulation in the cavity)
[2] = target: carboxymethylated humanized ferritin (S-CMHumFt) (Archaeoglobus fulgidus | human); experiment: as above

stoichiometry N [1]: 0.43 Cyt C:HumFt
stoichiometry N [2]: 1.4 Cyt C:HumFt
Substance: cytochrome C from equine heart (from UniProt P00004 1-105) (natural protein)
